Test results reported in publication PMC9517163.

Target: minke whale ACE2, mFc-tagged (minke whale)
Assay: SPR

“SARS-CoV-2 receptor-binding domain (RBD), prototype (from UniProt P0DTC2) (domain or fragment)” was tested, and the Kd was 0.155 µM.
